Experimental data published in the supplement of paper PMC10126150.
± gives the standard deviation of the averaged measurements.

Tested on: ATP
Test: switch fluorescence ratio, 500 uM ATP over buffer (Cy3 cluster intensity, sum of 5 cycles each) (fold (ratio)); higher = stronger signal-on switching upon ATP binding; sequences stand for … in TCGTCGGCAGCGTCAGATGTGTATAAGAGACAGTTTTTTTTTTTTTTTTTTTTTTTTT…TC
Details: aptamer strand: ATP DNA aptamer (quencher-CACCTGGGGGAGTATTGCGGAGGAAGG + anchor), 100 nM annealed; ATP concentration: 500 uM
How it was run: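 Five buffer/ATP imaging cycles were run on Cy3-labelled switching-strand clusters on a modified Illumina MiSeq flow-cell, with NaOH stripping and re-annealing between cycles. In each cycle, clusters annealed to 100 nM quencher-labelled ATP aptamer were imaged in selection buffer, then after 15 min with 500 uM ATP at 22 °C. Per cluster, the fluorescence ratio is summed target-cycle over summed buffer-cycle Cy3 intensity, averaged per switch-domain sequence. Only clusters within 100-1000 RFU were kept.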
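Further: ATP exposure 15 min at 22 °C before imaging.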

Sequence	switch fluorescence ratio
TCGCTTGGGA	1.03 ± 0.017
TCGCTTTTGG	1.02 ± 0.033
TCGGAAAAAT	0.966 ± 0.0099
TCGGAAGGGT	0.9933 ± 0.0075
TCGGAATGTG	1.01 ± 0.045
TCGGAATGTT	1.02 ± 0.025
TCGGAATTGC	1.56 ± 0.33
TCGGACACAT	1.07 ± 0.03
TCGGACATGG	1.015 ± 0.0082
TCGGACGGGC	1.26 ± 0.18
TCGGACTCGT	1.03 ± 0.044
TCGGAGACTC	1.05 ± 0.022
TCGGAGATCG	0.9443 ± 0.001
TCGGAGCTTG	1.16 ± 0.064
TCGGAGGAGC	1.05 ± 0.026
TCGGAGGCTT	1 ± 0.027
TCGGAGGGTT	1.016 ± 0.0052
TCGGAGTGGG	1.03 ± 0.043
TCGGATTCGA	1.015 ± 0.0092
TCGGATTGGG	0.993 ± 0.033
TCGGCAATTT	1.4 ± 0.34
TCGGCAGCGG	1.01 ± 0.034
TCGGCAGGGA	1.01 ± 0.051
TCGGCCACAG	1.05 ± 0.02
TCGGCCAGAG	1.01 ± 0.012
TCGGCGAAAA	1.84 ± 1.1

Sequence	switch fluorescence ratio
TCGGCGGCGG	0.974 ± 0.027
TCGGCGGGCG	0.986 ± 0.043
TCGGCGTAAG	0.998 ± 0.03
TCGGCGTTGG	1.03 ± 0.026
TCGGCTGTAT	1.69 ± 0.94
TCGGCTTAGC	0.981 ± 0.012
TCGGCTTCCT	1.27 ± 0.031
TCGGGAAGGG	0.991 ± 0.014
TCGGGAATTT	1.067 ± 0.0091
TCGGGACATA	1.02 ± 0.041
TCGGGACGTT	1.02 ± 0.044
TCGGGAGAAG	1.01 ± 0.013
TCGGGAGCGT	1.01 ± 0.033
TCGGGAGTTG	0.952 ± 0.024
TCGGGATTGA	0.98 ± 0.013
TCGGGATTTT	0.997 ± 0.041
TCGGGCAGTG	0.99 ± 0.03
TCGGGCGCAT	1.27 ± 0.026
TCGGGCGG	1.03 ± 0.014
TCGGGCTTTT	0.969 ± 0.026
TCGGGGAAAT	1.01 ± 0.023
TCGGGGAATT	0.989 ± 0.032
TCGGGGCCGC	0.981 ± 0.11
TCGGGGCCTT	0.998 ± 0.033
TCGGGGCTGG	1.02 ± 0.029
TCGGGGGCCT	0.959 ± 0.022

Sequence	switch fluorescence ratio
TCGGGGGGAC	1.03 ± 0.036
TCGGGGGGCG	0.977 ± 0.034
TCGGGGGGCT	1.06 ± 0.048
TCGGGGGGGT	1.06 ± 0.19
TCGGGGGGTG	1.01 ± 0.041
TCGGGGTATC	1.03 ± 0.0046
TCGGGGTATG	0.982 ± 0.014
TCGGGGTGTT	1.001 ± 0.0096
TCGGGTAAAG	0.9947 ± 0.0053
TCGGGTATGT	0.977 ± 0.029
TCGGGTCTAC	1.01 ± 0.018
TCGGGTGGTT	1 ± 0.016
TCGGTAATAT	1.08 ± 0.16
TCGGTAGGTG	1.028 ± 0.0052
TCGGTCAGTT	0.971 ± 0.012
TCGGTCCCAG	1.03 ± 0.014
TCGGTGGCGT	1.02 ± 0.048
TCGGTGGGGA	0.992 ± 0.087
TCGGTGGGGG	1.01 ± 0.051
TCGGTGGGTA	0.983 ± 0.013
TCGGTGTTTC	0.962 ± 0.017
TCGGTTAAGT	1.02 ± 0.031
TCGGTTGAAC	1.01 ± 0.031
TCGGTTGAGG	0.983 ± 0.025
TCGGTTGCTA	1.05 ± 0.023
TCGGTTGTG	0.9644 ± 0.0092

Sequence	switch fluorescence ratio
TCGGTTTAGC	1.02 ± 0.035
TCGGTTTTAC	1.033 ± 0.0061
TCGTAAATTT	0.973 ± 0.055
TCGTACTGTG	1.02 ± 0.1
TCGTAGAGGA	0.995 ± 0.032
TCGTAGAGGG	1.008 ± 0.0013
TCGTAGCAGG	1.12 ± 0.14
TCGTATGGGT	1 ± 0.045
TCGTCGCAGG	1.1 ± 0.058
TCGTCGTGTG	1 ± 0.028
TCGTCGTTTG	0.991 ± 0.01
TCGTCTTTTG	0.997 ± 0.015
TCGTGAGCGG	0.996 ± 0.034
TCGTGATTTT	1 ± 0.035
TCGTGCACGA	1.018 ± 0.0062
TCGTGCTTTG	1.0145 ± 0.00045
TCGTGGGGAG	0.982 ± 0.015
TCGTGGGGTA	0.9761 ± 0.007
TCGTGGTGGG	0.994 ± 0.012
TCGTGTCGG	0.98 ± 0.021
TCGTGTGGGT	1.01 ± 0.023
TCGTGTGGTT	0.978 ± 0.035
TCGTGTTTGT	1.02 ± 0.011
TCGTTAATGA	1.02 ± 0.02
TCGTTATTCG	0.979 ± 0.021
TCGTTATTGG	0.9844 ± 0.0023

Sequence	switch fluorescence ratio
TCGTTCATGG	0.979 ± 0.039
TCGTTCGGCT	1.01 ± 0.044
TCGTTCGGGG	1.041 ± 0.0049
TCGTTCGTCG	1.04 ± 0.06
TCGTTCTGGG	0.996 ± 0.023
TCGTTGAGCA	0.994 ± 0.018
TCGTTGCAGG	1.05 ± 0.092
TCGTTGCTAG	0.982 ± 0.059
TCGTTGGCTT	1 ± 0.011
TCGTTTATCA	0.9771 ± 0.0073
TCGTTTCGGG	0.985 ± 0.017
TCGTTTGTAT	0.972 ± 0.005
TCGTTTTATT	0.9925 ± 0.0076
TCGTTTTCCC	1.08 ± 0.14
TCGTTTTGAC	1.02 ± 0.023
TCGTTTTGAG	0.971 ± 0.039
TCGTTTTGCA	0.991 ± 0.013
TCGTTTTGGG	0.9988 ± 0.0056
TCTAAAGATT	1.011 ± 0.0027
TCTAACATGC	1.15 ± 0.12
TCTAACTTAG	1.043 ± 0.0025
TCTAAGACGT	0.957 ± 0.018
TCTAAGAGTC	0.975 ± 0.039
TCTAAGCTGG	0.988 ± 0.014
TCTAAGGCCC	0.986 ± 0.011
TCTAATTAGT	0.993 ± 0.013

Sequence	switch fluorescence ratio
TCTAATTGTT	0.9991 ± 0.0053
TCTACAGTCG	1.02 ± 0.023
TCTACGGCGT	0.9991 ± 0.0059
TCTACGGTGC	1.5 ± 0.24
TCTACTGGGT	0.993 ± 0.033
TCTAGAAGCG	1.0039 ± 0.00082
TCTAGCACGG	1.06 ± 0.023
TCTAGGAGGG	0.998 ± 0.016
TCTAGGCCTC	1.019 ± 0.0038
TCTAGGTAGA	0.993 ± 0.026
TCTAGTAAAT	1.01 ± 0.015
TCTATCAGTG	1.02 ± 0.018
TCTATCTTTA	0.996 ± 0.019
TCTATGACAA	1.01 ± 0.039
TCTATGAGGC	0.988 ± 0.024
TCTATGGGGT	1 ± 0.019
TCTATTAAGG	1 ± 0.013
TCTATTACGC	1 ± 0.047
TCTATTCCCT	1.02 ± 0.027
TCTCACTGCC	1.08 ± 0.028
TCTCAGAGTA	1 ± 0.012
TCTCAGGGGT	1.07 ± 0.094
TCTCATAGGT	1.04 ± 0.038
